The record followed here is patent US20100330095A1 (U3 PHARMA, published 2010).

The target of one experiment is T1, cynomolgus monkey AXL (cynomolgus monkey, UniProt P30530 26-894 (human entry)).
T1 construct: Cloned from cynomolgus brain cDNA; transiently expressed on HEK293T cells (pcDNA3-cyAXL); also called cyAXL
T1 chain: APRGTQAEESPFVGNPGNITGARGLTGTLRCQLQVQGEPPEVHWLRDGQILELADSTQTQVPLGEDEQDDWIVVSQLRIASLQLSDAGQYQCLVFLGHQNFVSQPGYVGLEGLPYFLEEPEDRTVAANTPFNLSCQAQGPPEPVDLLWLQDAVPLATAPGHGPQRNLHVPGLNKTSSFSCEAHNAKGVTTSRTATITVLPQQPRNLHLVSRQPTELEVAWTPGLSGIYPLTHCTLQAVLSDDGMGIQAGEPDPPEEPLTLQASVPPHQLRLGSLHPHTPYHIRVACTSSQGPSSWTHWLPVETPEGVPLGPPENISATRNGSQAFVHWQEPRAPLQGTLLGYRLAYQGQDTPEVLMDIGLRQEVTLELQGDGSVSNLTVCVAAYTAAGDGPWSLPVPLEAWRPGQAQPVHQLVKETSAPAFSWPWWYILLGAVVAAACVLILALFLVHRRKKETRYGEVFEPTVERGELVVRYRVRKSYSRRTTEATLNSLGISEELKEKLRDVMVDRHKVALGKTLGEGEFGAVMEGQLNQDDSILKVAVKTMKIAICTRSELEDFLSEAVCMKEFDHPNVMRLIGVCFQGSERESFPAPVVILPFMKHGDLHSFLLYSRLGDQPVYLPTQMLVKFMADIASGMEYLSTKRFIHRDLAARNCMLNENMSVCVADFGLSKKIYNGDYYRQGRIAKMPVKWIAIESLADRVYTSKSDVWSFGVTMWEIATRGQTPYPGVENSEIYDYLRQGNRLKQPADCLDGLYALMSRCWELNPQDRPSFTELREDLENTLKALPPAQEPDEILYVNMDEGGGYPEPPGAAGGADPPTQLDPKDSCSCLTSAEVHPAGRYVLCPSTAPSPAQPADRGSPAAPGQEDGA
In words: flow cytometry, transfected HEK293T cells, 10 µg/ml. The procedure: (§1) FIG. 3. Flow cytometry analysis of cross-reactivity of rat-anti AXL antibodies with mouse and cynomolgus monkey AXL as well as human Mer and Sky. HEK293T fibroblasts were transiently transfected with pcDNA3, pcDNA3-hAXL, pcDNA3 mAXL, pcDNA3-cyAXL, pcDNA3-hMer, or pcDNA3-hSky. […] See text for details.
(§2) For FACS analysis, 2×10⁵ cells were harvested with 10 mM EDTA in PBS, washed once with FACS buffer (PBS, 3% FCS, 0.4% azide) and seeded on a 96 well round bottom plate. […] After incubation on ice for 1 h, cells were washed twice with chilled FACS buffer and resuspended with PE-conjugated donkey anti-rat (Jackson) secondary antibody diluted 1:50 in FACS buffer (100 μl/well) or PE-conjugated donkey anti-mouse secondary antibody for control. Protected from light, cells were incubated on ice for 30 min, washed twice with FACS buffer and analyzed using an Epics XL-MCL flow cytometer (Beckman Coulter).
On the technique in general: Flow cytometry measures light scatter and fluorescence of single cells or particles in a stream.

A further experiment addresses T2, mouse AXL (mouse, UniProt Q00993 19-888).
T2 construct: whole, on cells; Transiently expressed on HEK293T cells (pcDNA3-mAXL); also called mAXL
T2 sequence (looked up): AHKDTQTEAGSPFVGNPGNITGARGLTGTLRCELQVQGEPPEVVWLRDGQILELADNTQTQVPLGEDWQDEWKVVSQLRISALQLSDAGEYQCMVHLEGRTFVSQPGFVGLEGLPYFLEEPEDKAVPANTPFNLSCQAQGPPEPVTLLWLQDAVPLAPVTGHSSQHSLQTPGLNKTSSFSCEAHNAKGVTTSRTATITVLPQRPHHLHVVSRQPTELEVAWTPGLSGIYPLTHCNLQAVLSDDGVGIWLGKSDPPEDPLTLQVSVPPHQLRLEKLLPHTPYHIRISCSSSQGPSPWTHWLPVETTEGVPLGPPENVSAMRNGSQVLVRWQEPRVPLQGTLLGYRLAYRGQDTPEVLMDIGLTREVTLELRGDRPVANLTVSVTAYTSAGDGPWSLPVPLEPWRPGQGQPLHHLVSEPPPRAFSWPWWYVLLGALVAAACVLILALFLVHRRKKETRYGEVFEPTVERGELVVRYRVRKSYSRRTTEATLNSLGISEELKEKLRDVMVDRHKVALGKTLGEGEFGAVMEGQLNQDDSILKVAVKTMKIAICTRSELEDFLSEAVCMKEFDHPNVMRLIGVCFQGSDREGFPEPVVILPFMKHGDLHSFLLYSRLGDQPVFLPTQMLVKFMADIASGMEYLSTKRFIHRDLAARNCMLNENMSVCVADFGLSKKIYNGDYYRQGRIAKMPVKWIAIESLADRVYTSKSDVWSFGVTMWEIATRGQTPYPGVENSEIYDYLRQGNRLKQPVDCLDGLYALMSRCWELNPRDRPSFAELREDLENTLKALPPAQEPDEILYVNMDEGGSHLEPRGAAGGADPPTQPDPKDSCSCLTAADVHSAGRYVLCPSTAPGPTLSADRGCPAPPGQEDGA
In words: flow cytometry, transiently transfected HEK293T cells. The procedure:
as §1, §2

B1: I 11B7 (antibody, V domains shown)
VH: EVQLQESGPGLVKPSQSLSLTCSVTGYSITSNYWGWIRKFPGDKMEWMGYITYSGSTSYNPSLKSRISITRDTSKNQFFLQLNSVTSEDTATYYCAITTFYYWGQGVMVTVSS
VL: DIQMTQAPSSLPASLGDRVTITCRASQDIGNYLRWFQQKPGKSPRLMISGATNLAAGVPSRFSGSRSGSDYSLTISSLESEDMADYYCLQSKESPWTFGGGTKLELK
notes: rat hybridoma antibody, antagonistic
As for B1, the values for the binding result with cynomolgus monkey AXL and with mouse AXL were “binds” and “no binding (tested: 10 µg/ml)”, respectively.

B2: I 10D12 (antibody, V domains shown)
VH: EVQLQESGPGLVKPSQSLSLTCSVTGYSITSNYWGWIRKFPGNKMEWMGYITNSGGTAYNPSLKSRISITRDTSKNQFFLQLNSVIPEDSATYFCSRTPWDWGQGVMVTVSS
VL: DIQMTQAPSSLPASLGDRVTIACRASQDIGNYLRWFQQKPGKSPRLMISGATNLAAGVPSRFSGSRSGSDYSRTISSLESEDMADYYCLQSKESPWTFGGGTKLELK
notes: rat hybridoma antibody, antagonistic; subclass G1
For the molecule B2, the values for the binding result with cynomolgus monkey AXL and in the experiment with mouse AXL were “binds” and “no binding (tested: 10 µg/ml)”, respectively.

B3: III 11D5 (antibody, rat IgG2a, V domains shown)
VH: EVQLQESGPGLVKPSQSLSLTCSVTGYSITSNYWGWIRKFPGNKMEWIGHITNSGNTTYNPSLKSRISISRDTSRNQFFLQLNSVTTEDTATYYCAKGAFDYWGQGVMVTVSS
VL: DIQMTQSPSSMSTSLGDRVTITCRASQDIGNYLSWFQQKVGKSPRRMIYGAIKLAVGVPSRFSGSRSGSDYSLTISSLESEDMAIYYCLQYIQFPLTFGSGTKLELK
notes: as for B1
On to B3, for which the binding result with cynomolgus monkey AXL was “binds”; in the experiment with mouse AXL, “no binding (tested: 10 µg/ml)”.
